For one experiment, the target named is T1, 4H883-AA.
T1 chain: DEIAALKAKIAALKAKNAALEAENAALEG
The experiment is described as follows: two-hybrid library CCmax.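 Note: natural log of median RNA to DNA barcode read ratio; higher means stronger binding.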 The note with it: mean of both orientations.

The next experiment addresses T2, 4H797-AA.
T2 chain: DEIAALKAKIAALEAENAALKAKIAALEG
The experiment is described as follows: two-hybrid library CCmax.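 Note: natural log of median RNA to DNA barcode read ratio; higher means stronger binding.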 The note with it: mean of both orientations.

For the next experiment, the target named is T3, 4H687-AA.
T3 chain: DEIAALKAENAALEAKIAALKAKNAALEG
As to the kind of experiment: two-hybrid library CCmax.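 Note: natural log of median RNA to DNA barcode read ratio; higher means stronger binding.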 The note with it: mean of both orientations.

Another experiment concerns the target T4, 4H3855-AA.
T4 chain: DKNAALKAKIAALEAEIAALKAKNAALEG
The experiment is described as follows: two-hybrid library CCmax.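 Note: natural log of median RNA to DNA barcode read ratio; higher means stronger binding.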

Another experiment concerns the target T5, 4H717-AA.
T5 chain: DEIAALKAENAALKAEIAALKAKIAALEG
As to the kind of experiment: two-hybrid library CCmax.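 Note: natural log of median RNA to DNA barcode read ratio; higher means stronger binding.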 The settings on record: mean of both orientations.

The target of a further experiment is T6, 4H967-AA.
T6 chain: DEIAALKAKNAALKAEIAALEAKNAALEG
As to the kind of experiment: two-hybrid library CCmax.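 Note: natural log of median RNA to DNA barcode read ratio; higher means stronger binding.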

A further experiment concerns the target T7, 4H918-AA.
T7 chain: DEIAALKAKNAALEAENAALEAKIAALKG
The experiment is described as follows: two-hybrid library CCmax. The settings on record: mean of both orientations.

For another experiment, the target named is T8, 4H4001-AA.
T8 chain: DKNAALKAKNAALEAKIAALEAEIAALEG
The experiment is described as follows: two-hybrid library CCmax. The settings on record: mean of both orientations.

A further experiment has as its target T9, 4H568-AA.
T9 chain: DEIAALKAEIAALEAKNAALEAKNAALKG
As to the kind of experiment: two-hybrid library CCmax. The note with it: mean of both orientations.

Another experiment deals with T10, 4H953-AA.
T10 chain: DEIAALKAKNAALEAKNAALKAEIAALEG
The experiment is described as follows: two-hybrid library CCmax. The settings on record: mean of both orientations.

For another experiment, the target named is T11, 4H3175-bN.
T11 chain: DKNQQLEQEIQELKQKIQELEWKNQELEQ
The experiment is described as follows: two-hybrid library CCNG1.

Another experiment deals with T12, 4H3613-bN.
T12 chain: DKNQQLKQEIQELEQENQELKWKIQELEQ
The experiment is described as follows: two-hybrid library CCNG1.

In the next experiment the target is T13, 4H3462-bN.
T13 chain: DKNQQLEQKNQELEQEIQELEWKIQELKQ
The experiment is described as follows: two-hybrid library CCNG1.

The target in the next experiment is T14, 4H3298-bN.
T14 chain: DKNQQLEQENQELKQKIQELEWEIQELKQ
As to the kind of experiment: two-hybrid library CCNG1.

The target in another experiment is T15, 4H591-bN.
T15 chain: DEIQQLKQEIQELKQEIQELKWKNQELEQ
As to the kind of experiment: two-hybrid library CCNG1.

The target in the next experiment is T16, 4H3277-bN.
T16 chain: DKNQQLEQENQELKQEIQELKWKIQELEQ
The experiment is described as follows: two-hybrid library CCNG1.

A further experiment deals with T17, 4H3628-bN.
T17 chain: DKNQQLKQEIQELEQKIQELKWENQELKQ
As to the kind of experiment: two-hybrid library CCNG1.

Another experiment concerns the target T18, 4H3926-bN.
T18 chain: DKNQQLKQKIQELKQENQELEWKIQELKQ
The experiment is described as follows: two-hybrid library CCNG1.

In another experiment the target is T19, 4H626-bN.
T19 chain: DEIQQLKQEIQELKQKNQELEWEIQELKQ
As to the kind of experiment: two-hybrid library CCNG1.

A further experiment deals with T20, 4H906-bN.
T20 chain: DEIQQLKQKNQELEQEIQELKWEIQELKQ
As to the kind of experiment: two-hybrid library CCNG1.

A further experiment deals with T21, 4H3497-bN.
T21 chain: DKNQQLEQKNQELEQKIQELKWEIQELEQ
As to the kind of experiment: two-hybrid library CCNG1.

The target of another experiment is T22, 4H3414-bN.
T22 chain: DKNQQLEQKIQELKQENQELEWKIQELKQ
As to the kind of experiment: two-hybrid library CCNG1.

A further experiment concerns the target T23, O4-bS.
T23 chain: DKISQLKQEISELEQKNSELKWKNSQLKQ
As to the kind of experiment: two-hybrid library CCNG1.

The target in a further experiment is T24, P6A-bA.
T24 chain: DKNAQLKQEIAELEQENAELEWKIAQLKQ
The experiment is described as follows: two-hybrid library CCNG1.

A further experiment deals with T25, O3-bS.
T25 chain: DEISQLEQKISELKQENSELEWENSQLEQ
The experiment is described as follows: two-hybrid library CCNG1.

The next experiment addresses T26, O6-bS.
T26 chain: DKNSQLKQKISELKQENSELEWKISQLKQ
The experiment is described as follows: two-hybrid library CCNG1.

A further experiment concerns the target T27, O5-bS.
T27 chain: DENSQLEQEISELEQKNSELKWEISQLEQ
The experiment is described as follows: two-hybrid library CCNG1.

Another experiment addresses T28, O8-bS.
T28 chain: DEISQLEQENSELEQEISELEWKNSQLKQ
The experiment is described as follows: two-hybrid library CCNG1.

The next experiment addresses T29, O7-bS.
T29 chain: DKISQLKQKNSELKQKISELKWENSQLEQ
As to the kind of experiment: two-hybrid library CCNG1.

Another experiment has as its target T30, O9-bS.
T30 chain: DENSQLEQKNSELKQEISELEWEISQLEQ
The experiment is described as follows: two-hybrid library CCNG1.

For a further experiment, the target named is T31, 4H796-bA.
T31 chain: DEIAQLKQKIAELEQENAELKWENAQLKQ
The experiment is described as follows: two-hybrid library CCNG1.

A further experiment concerns the target T32, 4H3297-bA.
T32 chain: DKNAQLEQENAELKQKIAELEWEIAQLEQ
The experiment is described as follows: two-hybrid library CCNG1.

In the next experiment the target is T33, 4H264-bA.
T33 chain: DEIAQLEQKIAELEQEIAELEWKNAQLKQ
As to the kind of experiment: two-hybrid library CCNG1.

Another experiment addresses T34, 4H3364-bA.
T34 chain: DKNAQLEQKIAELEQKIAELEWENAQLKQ
The experiment is described as follows: two-hybrid library CCNG1.

Another experiment deals with T35, 4H2859-bA.
T35 chain: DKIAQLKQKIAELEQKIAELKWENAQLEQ
The experiment is described as follows: two-hybrid library CCNG1.

A further experiment deals with T36, 4H3041-bA.
T36 chain: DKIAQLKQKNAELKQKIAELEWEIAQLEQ
The experiment is described as follows: two-hybrid library CCNG1.

The next experiment concerns the target T37, 4H730-bA.
T37 chain: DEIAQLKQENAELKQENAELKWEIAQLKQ
The experiment is described as follows: two-hybrid library CCNG1.

The next experiment addresses T38, 4H2760-bA.
T38 chain: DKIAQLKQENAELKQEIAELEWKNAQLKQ
As to the kind of experiment: two-hybrid library CCNG1.

Another experiment has as its target T39, 4H56-bA.
T39 chain: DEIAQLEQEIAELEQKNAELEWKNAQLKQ
As to the kind of experiment: two-hybrid library CCNG1.

The target of another experiment is T40, 4H2585-bA.
T40 chain: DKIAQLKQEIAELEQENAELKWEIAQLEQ
As to the kind of experiment: two-hybrid library CCNG1.

A further experiment deals with T41, 4H932-bA.
T41 chain: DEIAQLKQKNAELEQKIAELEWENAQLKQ
The experiment is described as follows: two-hybrid library CCNG1.

Another experiment deals with T42, 4H949-bA.
T42 chain: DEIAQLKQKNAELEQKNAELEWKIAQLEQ
As to the kind of experiment: two-hybrid library CCNG1.

The next experiment has as its target T43, 4H346-bH.
T43 chain: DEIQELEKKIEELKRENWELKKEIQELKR
The experiment is described as follows: two-hybrid library CCNG1.

In a further experiment the target is T44, 4H349-bA.
T44 chain: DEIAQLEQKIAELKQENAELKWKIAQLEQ
As to the kind of experiment: two-hybrid library CCNG1.

For another experiment, the target named is T45, 4H2931-bA.
T45 chain: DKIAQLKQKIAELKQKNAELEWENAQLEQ
The experiment is described as follows: two-hybrid library CCNG1.

Another experiment deals with T46, 4H3381-bA.
T46 chain: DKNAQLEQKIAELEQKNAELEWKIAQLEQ
The experiment is described as follows: two-hybrid library CCNG1.

Results on four molecules are retold here after publication PMC10397247.

Regarding DKNAALKAKIAALEAEIAALKAKNAALEG [4H3855-AA], the interaction score was -1.77 in the experiment with 4H883-AA; -1.29 with 4H797-AA; -1.5 with 4H687-AA; 1.05 with 4H3855-AA; -1.18 with 4H717-AA; -1.53 with 4H967-AA. In addition, the interaction score was -2.01 with 4H918-AA, -0.86 with 4H4001-AA, -1.35 with 4H568-AA and -1.89 with 4H953-AA.

Consider DKNQQLEQEIQELKQKIQELEWKNQELEQ [4H3175-bN], for which the interaction score with 4H3175-bN was 0.818; with 4H3613-bN, -0.132; with 4H3462-bN, -0.773; with 4H3298-bN it was -0.312; with 4H591-bN, -0.0622; with 4H3277-bN, 0.658. The interaction score in the experiment with 4H3628-bN is -0.511; with 4H3926-bN, -0.72; with 4H626-bN, -0.521; with 4H906-bN, -1.02; with 4H3497-bN, -0.279; in the experiment with 4H3414-bN, -0.633.

In the case of DEISQLEQKISELKQENSELEWENSQLEQ [O3-bS], the interaction score was 2.28 in the experiment with O4-bS; -1.14 in the experiment with P6A-bA; -1.46 with O3-bS; -0.838 in the experiment with O6-bS; 0.221 with O5-bS; -0.691 with O8-bS. In addition, the values for the interaction score with O7-bS and with O9-bS were -0.235 and -1.14, respectively.

Turning to DKIAQLKQEIAELEQENAELKWEIAQLEQ [4H2585-bA], the interaction score in the experiment with 4H796-bA was -1.49; with 4H3297-bA, -1.21; in the experiment with 4H264-bA it was -1.54; with 4H3364-bA, -0.878; with 4H2859-bA, -0.28; in the experiment with 4H3041-bA it was 0.083. Besides, the interaction score with 4H730-bA is -1.31; with 4H2760-bA it was 0.582; with 4H56-bA, -0.397; with 4H2585-bA, 0.266; in the experiment with 4H932-bA, -0.825; in the experiment with 4H949-bA it was -1.08. In addition, the interaction score with 4H346-bH was 1.98; in the experiment with 4H349-bA it was 1.13; with 4H2931-bA, -0.357; in the experiment with 4H3381-bA, -0.791.
